Laboratory results: IntAct's records for PubMed 20802463

Biological target: rfa2_human RPA2 (UniProt P15927)
Sequence (P15927 whole entry): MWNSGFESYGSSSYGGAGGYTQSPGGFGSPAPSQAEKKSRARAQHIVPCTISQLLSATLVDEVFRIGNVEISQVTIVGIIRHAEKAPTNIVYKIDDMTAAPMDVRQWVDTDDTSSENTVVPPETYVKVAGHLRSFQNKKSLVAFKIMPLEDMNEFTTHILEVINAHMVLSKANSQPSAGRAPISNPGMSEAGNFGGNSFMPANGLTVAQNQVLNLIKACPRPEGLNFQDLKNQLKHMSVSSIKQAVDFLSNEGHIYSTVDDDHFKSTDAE

effect of a mutation on the interaction | Substance
disrupting interaction | Bifunctional 3'-5' exonuclease/ATP-dependent helicase WRN (Homo sapiens), Q14191 S991A
disrupting interaction | Bifunctional 3'-5' exonuclease/ATP-dependent helicase WRN (Homo sapiens), Q14191 S1256A
disrupting interaction | Bifunctional 3'-5' exonuclease/ATP-dependent helicase WRN (Homo sapiens), Q14191 T1152A

Biological target: rfa2_human RPA2 (UniProt P15927)
Remark: another data set of the same source

effect of a mutation on the interaction | Substance
disrupting interaction | Bifunctional 3'-5' exonuclease/ATP-dependent helicase WRN (Homo sapiens), Q14191 S1058A
disrupting interaction | Bifunctional 3'-5' exonuclease/ATP-dependent helicase WRN (Homo sapiens), Q14191 S1141A
disrupting interaction | Bifunctional 3'-5' exonuclease/ATP-dependent helicase WRN (Homo sapiens), Q14191 S1292A
